{"source": "paper PMC9482650", "about": "“Quantitative fragmentomics allow affinity mapping of interactomes” (Nature Communications, 2022)", "key": {"[1]": {"test_system": "HEK293T cells", "assay": "Label-free MS proteome of stable cell lines expressing HPV16 E6 or E6ΔPBM", "assay_type": "cell-based, human", "conditions": "source data of Figure 6 D, IRES control line about 1; for p53 relative protein level: stable HEK293T cell line expressing the construct; for AHNAK relative protein level / LIN7C relative protein level / MPP6 relative protein level / SNX27 relative protein level: stable HEK293T cell line", "description": "HEK293T and HeLa cells were authenticated and found 100% identity to ATCC cat. CRL-3216 and ATCC cat. CCL-2, respectively. Jurkat and HaCat cell lines were not authenticated (original source: ECACC and Deutsches Krebsforschungszentrum DKFZ, respectively). HeLa cells were grown in DMEM (1 g/L glucose, Gibco) medium completed with 5% FCS and 40 μg/mL gentamicin, diluted every 3rd/4th day 1/10. HaCat cells were grown in DMEM (1 g/L glucose, Gibco) medium completed with 10% FCS and 40 μg/mL gentamicin, diluted every 3rd/4th day 1/4. Jurkat cells were grown in RPMI (Gibco) medium completed with 10% FCS and 40 μg/mL gentamicin, diluted every 3rd/4th day 1/12. All cells were kept at 37 °C and 5% CO2. For proteomics analyses cells were seeded on T-175 flasks. After they reached confluency, adherent cells were washed with PBS once and collected by scraping with ice-cold lysis buffer (Hepes-KOH pH 7.5 50 mM, NaCl 150 mM, Triton X-100 1%, complete EDTA-free protease inhibitor cocktail 1×, EDTA 2 mM, TCEP 5 mM, glycerol 10%). Jurkat cells were collected by 1000 g × centrifugation, washed once with PBS, then collected by 1000 g × 5 min centrifugation again and lysed in ice-cold lysis buffer. Lysates were sonicated 4 × 20 s with 1 s long pulses on ice, then incubated rotating at 4 °C for 30 min. Lysates were centrifuged at 12,000 rpm 4 °C for 20 min and supernatant was kept for further analysis. Concentration determination was carried out by standard Bradford method (Bio-Rad Protein Assay Dye Reagent #5000006) using BSA (MP BIomedicals #160069) as control on a Bio-Rad SmartSpec 3000 spectrophotometer instrument.\nThe samples were precipitated with TCA 20% overnight at 4 °C and centrifuged at 14,000 rpm for 10 min at 4 °C. The protein pellets were washed twice with 1 mL cold acetone and air dried. The protein extracts were solubilized in urea 8 M, reduced with 5 mM TCEP for 30 min, and alkylated with 10 mM iodoacetamide for 30 min in the dark. Double digestion was performed at 37 °C with 500 ng endoproteinase Lys-C for 4 h, followed by fourfold dilution and an overnight digestion with 500 ng trypsin. Peptide mixtures were then desalted on C18 spin-column and dried on Speed-Vacuum.\nSamples were analyzed using an Ultimate 3000 nano-RSLC (Thermo Scientific, San Jose California) coupled in line with a LTQ-Orbitrap ELITE mass spectrometer via a nano-electrospray ionization source (Thermo Scientific, San Jose California). Peptide mixtures were injected in 0.1% TFA on a C18 Acclaim PepMap100 trap-column (75 µm ID × 2 cm, 3 µm, 100 Å, Thermo Fisher Scientific) for 3 min at 5 µL/min with 2% ACN, 0.1% FA in H2O and then separated on a C18 Accucore nano-column (75 µm ID × 50 cm, 2.6 µm, 150 Å, Thermo Fisher Scientific) at 220 nl/min and 38 °C with a 90 min linear gradient from 5% to 30% buffer B (A: 0.1% FA in H2O/B: 99% ACN, 0.1% FA in H2O), regeneration at 5% B. The mass spectrometer was operated in positive ionization mode, in data-dependent mode with survey scans from m/z 350–1500 acquired in the Orbitrap at a resolution of 120,000 at m/z 400. The 20 most intense peaks from survey scans were selected for further fragmentation in the Linear Ion Trap with an isolation window of 2.0 Da and were fragmented by CID with normalized collision energy of 35%. (TOP20CID method) Unassigned and single charged states were excluded from fragmentation. The Ion Target Value for the survey scans (in the Orbitrap) and the MS2 mode (in the Linear Ion Trap) were set to 1E6 and 5E3 respectively and the maximum injection time was set to 100 ms for both scan modes. Dynamic exclusion was set to 20 s after one repeat count with mass width at ±10 ppm.\nProteins were identified by database searching using SequestHT (Thermo Fisher Scientific) with Proteome Discoverer 2.4 software (PD2.4, Thermo Fisher Scientific) on human FASTA database downloaded from SwissProt (reviewed, release 2020_11_27, 20304 entries, https://www.uniprot.org/). […]"}, "[2]": {"test_system": "HEK293T cells", "assay": "Western blot of PDZ-proteins, p53 and E6AP in stable cell lines", "assay_type": "cell-based, human", "conditions": "source data of Figure 6 E, stable HEK293T cell line, IRES control line about 1"}}}
{"molecule": "E6: wild-type HPV16 E6 oncoprotein stably expressed in HEK293T cells (protein, UniProt P03126 1-158, looked up, full-length, wild-type HPV16 E6 oncoprotein stably expressed in HEK293T cells) MHQKRTAMFQDPQERPRKLPQLCTELQTTIHDIILECVYCKQQLLRREVYDFAFRDLCIVYRDGNPYAVCDKCLKFYSKISEYRHYCYSLYGTTLEQQYNKPLCDLLIRCINCQKPLCPEEKQRHLDKKQRFHNIRGRWTGRCMSCCRSSRTRRETQL", "values": [{"measurement": "p53 relative protein level", "setting": "[1]; replicate 1", "result": 0.1537}, {"measurement": "p53 relative protein level", "setting": "[1]; replicate 2", "result": 0.2546}, {"measurement": "p53 relative protein level", "setting": "[1]; replicate 3", "result": 0.1997}, {"measurement": "AHNAK relative protein level", "setting": "[1]; replicate 1", "result": 0.9544}, {"measurement": "LIN7C relative protein level", "setting": "[1]; replicate 1", "result": 0.7333}, {"measurement": "MPP6 relative protein level", "setting": "[1]; replicate 1", "result": 0.8283}, {"measurement": "SNX27 relative protein level", "setting": "[1]; replicate 1", "result": 0.8078}, {"measurement": "AHNAK relative protein level", "setting": "[1]; replicate 2", "result": 0.9923}, {"measurement": "LIN7C relative protein level", "setting": "[1]; replicate 2", "result": 0.764}, {"measurement": "MPP6 relative protein level", "setting": "[1]; replicate 2", "result": 0.8646}, {"measurement": "SNX27 relative protein level", "setting": "[1]; replicate 2", "result": 1.3738}, {"measurement": "AHNAK relative protein level", "setting": "[1]; replicate 3", "result": 1.222}, {"measurement": "LIN7C relative protein level", "setting": "[1]; replicate 3", "result": 1.025}, {"measurement": "MPP6 relative protein level", "setting": "[1]; replicate 3", "result": 0.4141}, {"measurement": "SNX27 relative protein level", "setting": "[1]; replicate 3", "result": 1.15}, {"measurement": "E6AP relative protein level", "setting": "[2]; replicate 1", "result": 0.1109}, {"measurement": "MAGI1 relative protein level", "setting": "[2]; replicate 1", "result": 1.104}, {"measurement": "SNX27 relative protein level", "setting": "[2]; replicate 1", "result": 1.182}, {"measurement": "p53 relative protein level", "setting": "[2]; replicate 1", "result": 0.0349}, {"measurement": "E6AP relative protein level", "setting": "[2]; replicate 2", "result": 0.2467}, {"measurement": "MAGI1 relative protein level", "setting": "[2]; replicate 2", "result": 0.7612}, {"measurement": "SNX27 relative protein level", "setting": "[2]; replicate 2", "result": 0.5109}, {"measurement": "p53 relative protein level", "setting": "[2]; replicate 2", "result": 0.03479}, {"measurement": "E6AP relative protein level", "setting": "[2]; replicate 3", "result": 0.1353}, {"measurement": "MAGI1 relative protein level", "setting": "[2]; replicate 3", "result": 0.6199}, {"measurement": "SNX27 relative protein level", "setting": "[2]; replicate 3", "result": 0.8346}, {"measurement": "p53 relative protein level", "setting": "[2]; replicate 3", "result": 0.01425}]}
